T1: S.c. DNA polymerase δ catalytic subunit Pol3 with the D321S and E323S mutations in the exonuclease active site (S. cerevisiae, UniProt P15436 1-1097, D321S | E323S)
T1 construct: Pol3, catalytic subunit of Saccharomyces cerevisiae DNA polymerase δ; carries a 4Fe-4S cluster (CysB) and a zinc finger (CysA); Stood in the assay as part of the three-subunit Pol δ; also called catalytic subunit of Pol δ^exo-
T1 sequence: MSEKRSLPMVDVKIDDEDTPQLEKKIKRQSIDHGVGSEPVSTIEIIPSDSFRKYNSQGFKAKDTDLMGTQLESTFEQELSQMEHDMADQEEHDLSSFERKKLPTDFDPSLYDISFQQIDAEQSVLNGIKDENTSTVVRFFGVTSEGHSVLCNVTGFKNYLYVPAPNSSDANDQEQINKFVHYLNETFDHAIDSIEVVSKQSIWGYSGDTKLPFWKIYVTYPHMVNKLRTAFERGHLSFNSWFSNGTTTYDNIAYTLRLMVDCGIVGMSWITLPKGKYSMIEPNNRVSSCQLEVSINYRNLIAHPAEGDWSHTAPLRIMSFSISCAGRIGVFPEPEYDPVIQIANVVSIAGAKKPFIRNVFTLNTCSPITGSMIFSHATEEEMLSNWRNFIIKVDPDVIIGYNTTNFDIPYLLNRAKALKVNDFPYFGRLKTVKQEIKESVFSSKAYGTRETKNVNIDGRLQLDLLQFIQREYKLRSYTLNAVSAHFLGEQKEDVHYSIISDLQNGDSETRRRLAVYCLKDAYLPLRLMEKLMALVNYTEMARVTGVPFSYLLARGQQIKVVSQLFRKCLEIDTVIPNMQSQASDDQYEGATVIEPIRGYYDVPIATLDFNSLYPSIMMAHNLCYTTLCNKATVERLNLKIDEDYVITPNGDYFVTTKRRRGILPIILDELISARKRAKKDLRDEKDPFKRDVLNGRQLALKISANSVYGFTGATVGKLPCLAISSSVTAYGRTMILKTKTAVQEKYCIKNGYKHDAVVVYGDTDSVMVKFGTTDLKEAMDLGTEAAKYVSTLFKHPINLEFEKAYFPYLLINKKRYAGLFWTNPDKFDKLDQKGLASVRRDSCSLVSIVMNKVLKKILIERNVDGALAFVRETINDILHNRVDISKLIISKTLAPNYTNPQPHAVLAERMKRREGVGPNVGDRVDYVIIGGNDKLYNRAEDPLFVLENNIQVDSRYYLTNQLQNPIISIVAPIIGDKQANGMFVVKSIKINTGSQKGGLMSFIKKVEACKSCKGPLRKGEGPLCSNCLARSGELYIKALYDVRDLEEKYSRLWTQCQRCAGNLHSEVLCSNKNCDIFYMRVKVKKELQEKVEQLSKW

B1: T/P DNA (38-nt template / 25-nt primer) (dsDNA)
DNA 1: CTGCACGAATTAAGCAATTCGTAATCATGGTCATAGCT
DNA 2: AGCTATGACCATGATTACGAATTGC
modifications: primer 3'-terminal dideoxy-C
B2: S.c. DNA polymerase δ regulatory subunit Pol31 (natural protein, S. cerevisiae)
chain: MDALLTKFNEDRSLQDENLSQPRTRVRIVDDNLYNKSNPFQLCYKKRDYGSQYYHIYQYRLKTFRERVLKECDKRWDAGFTLNGQLVLKKDKVLDIQGNQPCWCVGSIYCEMKYKPNVLDEVINDTYGAPDLTKSYTDKEGGSDEIMLEDESGRVLLVGDFIRSTPFITGVVVGILGMEAEAGTFQVLDICYPTPLPQNPFPAPIATCPTRGKIALVSGLNLNNTSPDRLLRLEILREFLMGRINNKIDDISLIGRLLICGNSVDFDIKSVNKDELMISLTEFSKFLHNILPSISVDIMPGTNDPSDKSLPQQPFHKSLFDKSLESYFNGSNKEILNLVTNPYEFSYNGVDVLAVSGKNINDICKYVIPSNDNGESENKVEEGESNDFKDDIEHRLDLMECTMKWQNIAPTAPDTLWCYPYTDKDPFVLDKWPHVYIVANQPYFGTRVVEIGGKNIKIISVPEFSSTGMIILLDLETLEAETVKIDI
notes: Pol31 (B subunit), regulatory subunit of Saccharomyces cerevisiae DNA polymerase δ; Stood in the assay as part of the three-subunit Pol δ; also called B subunit
B3: S.c. proliferating cell nuclear antigen (PCNA) sliding clamp (natural protein, S. cerevisiae)
chain: MLEAKFEEASLFKRIIDGFKDCVQLVNFQCKEDGIIAQAVDDSRVLLVSLEIGVEAFQEYRCDHPVTLGMDLTSLSKILRCGNNTDTLTLIADNTPDSIILLFEDTKKDRIAEYSLKLMDIDADFLKIEELQYDSTLSLPSSEFSKIVRDLSQLSDSINIMITKETIKFVADGDIGSGSVIIKPFVDMEHPETSIKLEMDQPVDLTFGAKYLLDIIKGSSLSDRVGIRLSSEAPALFQFDLKSGFLQFFLAPKFNDEE
notes: PCNA of Saccharomyces cerevisiae, homotrimeric ring; also called PCNA clamp; PCNA trimer; source: purified
B4: 62-mer ssDNA (ssDNA)
DNA: ATGCTTAGCCTGAGGACTATTCTACTTAACGCGAGTTACGTGACGGTATCTTATCCGGCGC
B5: S.c. DNA polymerase δ regulatory subunit Pol32 (natural protein, S. cerevisiae)
chain: MDQKASYFINEKLFTEVKPVLFTDLIHHLKIGPSMAKKLMFDYYKQTTNAKYNCVVICCYKDQTIKIIHDLSNIPQQDSIIDCFIYAFNPMDSFIPYYDIIDQKDCLTIKNSYELKVSESSKIIERTKTLEEKSKPLVRPTARSKTTPEETTGRKSKSKDMGLRSTALLAKMKKDRDDKETSRQNELRKRKEENLQKINKQNPEREAQMKELNNLFVEDDLDTEEVNGGSKPNSPKETDSNDKDKNNDDLEDLLETTAEDSLMDVPKIQQTKPSETEHSKEPKSEEEPSSFIDEDGYIVTKRPATSTPPRKPSPVVKRALSSSKKQETPSSNKRLKKQGTLESFFKRKAK
notes: Pol32, regulatory subunit of Saccharomyces cerevisiae DNA polymerase δ; Stood in the assay as part of the three-subunit Pol δ

The target of data set [1] is Pol delta exo- (Pol3-Pol31-Pol32);PCNA (Saccharomyces cerevisiae;Saccharomyces …, UniProt P15436;P46957;P47110;P15873 1-1097;1-487;1-350;1-258, D321S;E323S|). Briefly: cryo-EM 3.2 A; ddTTP; 4Fe-4S cluster, Zn2+; EMSA: 50 mM Hepes pH 7.5, 5 mM MgCl2, 50 mM NaOAc, 1 mM DTT, 6% glycerol, 90 min at room temperature; 8% native PAGE in 40 mM Tris, 150 mM glycine pH 8.0. To be noted: protein: recombinant;recombinant; tags: ;; copies: 1;1;1;3; 25 bp, 5' overhang 13 nt on template. In general terms: In EMSA bound probe runs differently from free probe, usually more slowly.

Data set [2] deals with T1, S.c. DNA polymerase δ catalytic subunit …. Briefly: cryo-EM structure; 8.0 uM PCNA and 6.0 uM T/P DNA mixed in Hepes-KOH pH 7.5, DTT, MgAc, KOAc, potassium glutamate, 0.4 mM ddTTP, then 3.3 uM Pol δ added; PCNA:Pol δ:T/P DNA 1.2:1:0.9; on ice 1 h; 3.2 Å map. Particulars: both partners purified.
The target in data set [3] is T2, S.c. DNA polymerase δ (Pol3-Pol31-Pol32) harboring the D321S and E323S mutations in the exonuclease domain of … (S. cerevisiae, UniProt P15436 1-1097; P46957 1-487; P47110 1-350, D321S | E323S).
T2 construct: Pol3, catalytic subunit of Saccharomyces cerevisiae DNA polymerase δ; Pol31 (B subunit), regulatory subunit of Saccharomyces cerevisiae DNA polymerase δ; Pol32, regulatory subunit of Saccharomyces cerevisiae DNA polymerase δ; also called Pol δ^exo-; Pol δ; copies: + +
Described as above. Particulars: both partners purified.

Data set [4] deals with the molecule itself. The description is as above.
For a further data set, the target named is Pol31-Pol32 complex (Saccharomyces cerevisiae, UniProt P46957;P47110 1-487;1-350). Briefly: EMSA; 5 mM Mg2+; 0-5 uM protein, 0.5 nM DNA; EMSA: 50 mM Hepes pH 7.5, 5 mM MgCl2, 50 mM NaOAc, 1 mM DTT, 6% glycerol, 90 min at room temperature; 8% native PAGE in 40 mM Tris, 150 mM glycine pH 8.0. To be noted: protein: recombinant; tags: GST tag removed with PreScission protease; copies: 1;1; label: 5'-32P; single strand.

The target of data set [5] is B2. Briefly: cryo-EM structure; 8.0 uM PCNA and 6.0 uM T/P DNA mixed in Hepes-KOH pH 7.5, DTT, MgAc, KOAc, potassium glutamate, 0.4 mM ddTTP, then 3.3 uM Pol δ added; PCNA:Pol δ:T/P DNA 1.2:1:0.9; on ice 1 h; 3.2 Å map. To be noted: both partners purified.

As for B1, the binding result in data set [1] is “binds”.

For the molecule B2, the binding result in data set [2] was “binds”.

The stoichiometry N is a count of units in the complex or per binding partner. For B3, the binding result in data set [3] and in data set [2] was “binds” throughout. Besides, the “stoichiometry N” value in data set [4] came out at 3. As to B4, the binding result with Pol31-Pol32 complex is on record as “binds”. Take B5: the binding result in data set [5] is given as “binds”.

Values taken from paper PMC7720213, “Structure of eukaryotic DNA polymerase δ bound to the PCNA clamp while encircling DNA” (Proceedings of the National Academy of Sciences of the …, 2020).
